B1: antibody 11E1 (antibody, V domains shown)
VH: QVQLQQPGAELVRPGASVKLSCKASGYTFTNYWMNWVKQRPGQGLEWIGMIDPSDSETHYNQMFKDKATLTVDKSSSTAYMQLSSLTSEDSAVYYCARGGASSDYYYFDYWGQGTTLTVSSASTK
VL: ETTVTQSPASLSMAIGEKVTIRCITSTDIHDDINWYQQKPGEPPKLLISEGNTLRPGVPSRFSSSGYGTDFVFTIENMLSEDVADYYCLQSDNLPRTFGGGTKLEIKRT
notes: Mouse monoclonal from Balb/c immunization #1; also called clone 11E1
B2: antibody 7G11 (antibody, V domains shown)
VH: EVQLQQYGAELGKPGTSVKLSCKVSGYNITYTYMHWVNQRPGKGLEWIGRIDPANGNTIYGEKFKNKATLTADTSSNTAYMQLSQLKSDDTAIYFCAMGEFDYFDHWGQGVMVTVSS
VL: DIQMTQSPASLSASLGETVSIECLASEDISNDLAWYQQKSGKSPQVLIYAASRLEDGVPSRFSGSGSGTRYSLKISGMQPEDEADYFCQQSYKYPVTFGSGTKLEIK
notes: Rat monoclonal from LOU/c immunization #2; also called clone 7G11
B3: antibody 32C4 (antibody, V domains shown)
VH: EVQLQQYGAELGKPGTSVKLSCKVSGYNIWSTYIYWVNQRPGKGLEWIGRIDPANGNTIYAEKFKTKATLTADTSSNTAYMQLSQLKSDDTAIYFCAMGDHGGYVMDAWGQGASVTVSS
VL: DIQMTQSPGSLSASLGETVSIECLASEDIYSYLAWYQQKPGKSPQLLIYAANRLEDGVPSRFSGSGSGTQYSLKISGMQPEDEGDYFCLQGSEFPYTFGTGTKLELK
notes: Rat monoclonal from LOU/c immunization #2; also called clone 32C4
B4: antibody 31F6 (antibody, V domains shown)
VH: EVQLQQSGAELGKPGTSVKLSCKVSGYNIRYTYMHWVNQRPGKGLEWIGRIDPANGDSIYGEDFKTKATLTADTSSNTAYMQLSQLKSDDTAIYFCAMGEFDYFDYWGQGVMVTVSSASTK
VL: DIQMTQSPPSLSASLGETVSIECLASEGISNDLAWYQQRSGKSPQLLIYAASRLQDGVPSRFSGSGSGTRYSLKISGMQPEDEADYFCQQNYKYPLTFGSGTKLEIK
notes: Rat monoclonal from LOU/c immunization #2; also called clone 31F6

Experiments:
[1] = target: wild-type human TLR3 ECD-CD32 construct (V5-TLR3-CD32) on HEK293T cells (human); assay: flow cytometry, 293T cells expressing TLR3/CD32 solely at the surface, neutral pH
Experimental: Following two wash cycles, cell MFI was analyzed on a FACS Canto II cytometer.

[2] = target: T1, recombinant human His-tagged TLR3 extracellular domain protein (human, UniProt O15455 24-704); assay: SPR (Biacore T100), bivalent affinity, TLR3-His immobilized, pH 5.6; pH 5.6
T1 construct: Bought protein; also called TLR3-His; recombinant human TLR3; not shown: His tag

[3] = target: T1, recombinant human His-tagged TLR3 …; assay: SPR (Biacore T100), bivalent affinity, TLR3-His immobilized, pH 7.2; pH 7.2
Experimental: For bivalent affinity measurement, unless indicated otherwise, TLR3-His protein was immobilized on a Sensor Chip CM5 (carboxymethylated dextran layer) by amine coupling. […] The resulting sensorgrams were analysed by global fitting using the appropriate model.
Binding to TLR3 at neutral (pH 7.2) and acid (pH 5.6) conditions, and KD values were calculated.

| EC50 [1] | Kd [2] | Kd [3] | Binder |
| --- | --- | --- | --- |
| 0.016 µg/mL | 1 nM | 0.0875 nM | B1 |
| 0.021 µg/mL |  |  | B2 |
| 0.037 µg/mL |  |  | B3 |
| 0.026 µg/mL |  |  | B4 |

From patent US20150140000A1 (INNATE PHARMA, published 2015)
